Data from US20250084126A1, “PEPTIDE AND COMPOSITION” (OSAKA UNIVERSITY, priority 2021, published 2025).
No end group written: not given here.

Tests used:
hDPSCs [1] = assay: LDH-assay cytotoxicity to hDPSCs; format: cell-based, human; settings: for cytotoxicity compared to the control (LDH-assay): 2 days, control PBS, p<0.05; for cytotoxicity, overall conclusion: 0.1-100 μg/ml, versus PBS
Experimental: The hDPSCs were seeded in α-MEM medium containing 10% FBS added with the four peptides at concentrations of 0.1, 1, 10, and 100 μg/ml in a 96 well plate at 5,000 cells/well and cultured at 37° C. for 2 days in a 5% CO2 gas phase. For toxicity test, culture supernatant was collected and LDH-assay was performed using LDH Cytotoxicity Detection Kit (Takara Bio Inc., Shiga). A reagent was added to the collected culture supernatant, and the culture supernatant was placed at 37° C. for 30 minutes in the 5% CO2 gas phase. The absorbance at 405 nm was then measured using the microplate reader (ARVO MX). To further evaluate the proliferative capacity, WST-1-assay was performed using Premix WST-1 Cell Proliferation Assay System (Takara Bio Inc.) after the cells had been continuously cultured for 1 day. The culture was added with a WST-1 reagent and allowed to stand for 30 minutes at 37° C. in the 5% CO2 gas phase. After shaking for 1 minute at room temperature, the absorbance at 450 nm was measured using the microplate reader (ARVO MX). A sample in which the PBS was added to the culture was used as a control, and the number of samples was 6 for each condition.
(§1) The statistical significance test in the above experiment was performed using the One-way ANOVA and Tukey's test for a cytotoxicity test and Kruskal-Wallis-test for a cell proliferation test and a comparison of the amount of formed tertiary dentin in the direct pulp capping experiment, with a critical value of 5%.

[2] = tested on: exposed pulp of rat molars; assay: Direct pulp capping experiment using Protein S100 family-derived peptide; format: in vivo; settings: 4 weeks; for structure of the tertiary dentin compared to the samples treated with the peptides (HE staining): 1 μg/ml; for number of samples with tertiary dentin formation that completely sealed the exposed pulp region: micro-CT scoring, n=8 per condition, peptides 100 μg/ml, recombinant proteins 1 μg/ml, 20 μl in gelatin sponge; for closure of the surface of the exposed pulp (HE staining): representative samples with complete tertiary dentin formation
Experimental: To evaluate the effect of the Protein S100 family-derived peptide on ability of forming of the tertiary dentin, a direct pulp capping experiment was performed on rat molars using a gelatin sponge (Spongel®) soaked with 20 μl of each PBS solution containing the No. 28, No. 47, No. 32, or No. 51 peptide at a concentration of 100 μg/ml using the same way as described in the section 1) of “Materials and Methods” of the section 1 of the section I above. PBS solution containing the S100-A8 (PROSPEC, Israel), the PBS solution containing the S100-A9 (PROSPEC), wherein the S100-A8 and S100-A9 are a recombinant of the protein from which the peptide was derived, at a concentration of 1 μg/ml, and the PBS solution alone were used as controls. After 4 weeks from the capping treatment, the micro-CT imaging and image analysis were performed on the tertiary dentin formed just below the exposed pulp. An evaluation method, in which the amount of formed tertiary dentin observed in histopathological images was scored, in the direct pulp capping experiment conducted by Okamoto et al. in the past, was applied to the micro-CT images in this study, and the evaluation was performed by scoring the formed tertiary dentin [Clinical Oral Investigations 2018, 22(8):2879-2887; Journal of Dentistry 2010, 38(10):828-837]. The evaluation was performed by one person, with a score of Grade 0 in cases where the tertiary dentin was formed in only one-third or less of the exposed pulp region, Grade 1 in cases where the tertiary dentin was formed in one-third to two-thirds of the exposed pulp region, Grade 2 in cases where the tertiary dentin was formed in two-thirds or more of the exposed pulp region, and Grade 3 in cases where the formed tertiary dentin was completely covering the exposed pulp region. In addition, the same micro-CT images were analyzed using the same way as described in the section 2) of “Materials and Methods” of the section 1 of the section I above to evaluate the volume of the formed tertiary dentin. HE staining was also performed using the same way as described in the section 3) of “Materials and Methods” of the section 1 of the section I above, and histopathological evaluation of the formation of the tertiary dentin was performed. The number of samples was 8 for each condition.
as §1

hDPSCs [3] = assay: Proteome analysis (LC-MS/MS) of proteins expressed by hDPSCs; format: cell-based, human; settings: 0.1 mM, 7 days
Experimental: The No. 28 peptide or the recombinant S100-A8, the protein from which the No. 28 peptide is derived, was applied to the hDPSCs to compare and quantify the proteins expressed by the hDPSCs by the LC-MS/MS. The hDPSCs were seeded in a 100 mm cell culture dish at 3,000,000 cells/plate in the mineralization induction medium containing each of the samples containing the No. 28 peptide or the S100-A8 at a concentration of 0.1 mM, and cultured at 37° C. in the 5% CO2 gas phase for 7 days. Then, plasma membrane and cytoplasmic proteins were extracted using a plasma membrane protein extraction kit (Cosmo Bio Co., Ltd., Tokyo). As a practical procedure, the hDPSCs were cultured for 7 days, collected with a scraper, added with Buffer A included in the kit, and left on ice for 10 minutes. The hDPSCs were then transferred into a microtube with a filter cartridge included in the kit and centrifuged at 14,000 rpm for 30 seconds. After discarding the cartridge and agitating for 10 seconds, the microtube was centrifuged at 3000 rpm for 1 minute and the supernatant was collected. The collected supernatant was then centrifuged at 14,000 rpm for 30 minutes to extract the cytoplasmic proteins separated in a supernatant and the plasma membrane proteins separated in pellet. As a control, the hDPSCs cultured in mineralization induction medium supplemented with the PBS were used.
Each sample was analyzed by liquid chromatography using UltiMate 3000 Nano LC systems (Thermo Fisher Scientific, USA) and ESI-column (0.075×150 mm) (Thermo Fisher Scientific). A 0.1% formic acid aqueous solution containing acetonitrile was used as a mobile phase at a flow rate of 300 nL/min. The concentration of acetonitrile was 5% for the first 5 min, increased to 40% in 95 min, then increased at a constant rate for 2 min to 90%, and maintained for 5 min. The peptides were analyzed using Q-Exactive (Thermo Fisher Scientific). Identification and quantitative analysis of the proteins were performed by peptide mass fingerprinting using Mascot Distiller v2.5, Mascot Server v2.5 (Matrix Science, USA), and UniProt on obtained MS/MS spectra.
In addition, to evaluate changes in expression levels of the proteins, the following criteria were used to narrow down the identified plasma membrane-derived and cytoplasm-derived proteins among the samples.
• Proteins whose measured values were higher in the S100-A8 group than in the control group • Proteins whose measured values in the peptide group are more than twice as high as those in the control group • Proteins whose measured values in both the peptide group and the S100-A8 group are equal to or greater than 1 (a.u.; arbitrary unit)
• Proteins whose measured values were lower in the S100-A8 group than in the control group • Proteins whose measured values in the control group are more than twice as high as those in the peptide group • Proteins whose measured values in the control group are equal to or greater than 1 (a.u.; arbitrary unit)
Each of the groups narrowed down by the above criteria was analyzed using Gene Ontology (GO) classification. The GO provides an internationally standardized GO Term, which is intended to describe biological functions. The GO Term is organized in a hierarchical structure, with the upper order representing general functions and the lower order representing more detailed functions. For example, there are three categories at the top: “Molecular function,” “Biological process,” and “Cellular component.”
The GO Term belonging to “Molecular function” and “Biological process” which represent their respective functions from the above classification were searched for the protein groups obtained in this experiment, and the functions characteristic to each protein group were examined.

pulp cells = settings: reported in Non Patent Literature 1; cited from earlier work
exposed pulp = settings: rat in vivo, reported in Non Patent Literature 1; cited from earlier work
[4] = mineralization induction medium, count for No. 28 peptide or S100-A8 jointly

NTDGAVNFQ [No. 32 peptide, Asn-Thr-Asp-Gly-Ala-Val-Asn-Phe-Gln]
cytotoxicity compared to the control (LDH-assay) (hDPSCs [1]; 1 μg/ml): significantly lower cytotoxicity | cytotoxicity, overall conclusion (hDPSCs [1]): comparable to that of the PBS

KLLETECPQ [No. 28 peptide, Lys-Leu-Leu-Glu-Thr-Glu-Cys-Pro-Gln]
cytotoxicity, overall conclusion (hDPSCs [1]): comparable to that of the PBS | cytotoxicity compared to the control (LDH-assay) (hDPSCs [1]; all concentrations (0.1, 1, 10, 100 μg/ml)): significantly lower cytotoxicity

NADKQLSFE [No. 51 peptide, Asn-Ala-Asp-Lys-Gln-Leu-Ser-Phe-Glu]
cytotoxicity compared to the control (LDH-assay) (hDPSCs [1]; 10 μg/ml): significantly lower cytotoxicity | cytotoxicity compared to the control (LDH-assay) (hDPSCs [1]; 100 μg/ml): significantly lower cytotoxicity | cytotoxicity, overall conclusion (hDPSCs [1]): comparable to that of the PBS

B1: S100-A8: recombinant of the protein from which the peptide was derived (PROSPEC); UniProtKB-P05109 (protein, UniProt P05109 1-93, looked up)
Protein S100-A8: MLTELEKALNSIIDVYHKYSLIKGNFHAVYRDDLKKLLETECPQYIRKKGADVWFKELDINTDGAVNFQEFLILVIKMGVAAHKKSHEESHKE
structure of the tertiary dentin compared to the samples treated with the peptides (HE staining) [2]: sparse structure | number of samples with tertiary dentin formation that completely sealed the exposed pulp region [2]: 1 samples | closure of the surface of the exposed pulp (HE staining) [2]: completely closed by the formed tertiary dentin | expression levels of proteins promoting MAPK signaling pathway (MAP2K1, CDH2, NRAS, MAP1, CRK, PSMB7) versus control (hDPSCs [3]; GO Term analysis): decreased | expression levels of proteins promoting NFκB signaling pathway (FLOT1, 3KCR1, LYRIC, GJA1, S100A-13, NOL3) versus control (hDPSCs [3]; GO Term analysis): more increased | cytoplasm-derived proteins whose expression levels were more decreased than in the control (hDPSCs [3]; [4]): 67 proteins | cytoplasm-derived proteins whose expression levels were more increased than in the control (hDPSCs [3]; [4]): 250 proteins | plasma membrane-derived proteins whose expression levels were more decreased than in the control (hDPSCs [3]; [4]): 97 proteins | plasma membrane-derived proteins whose expression levels were more increased than in the control (hDPSCs [3]; [4]): 158 proteins | effect on pulp cells in vitro (pulp cells): activates proliferation, differentiation, and mineralization abilities | tertiary dentin induction in the direct pulp capping experiment (exposed pulp): completely covers the surface of the exposed pulp

B2: S100-A9: recombinant of the protein from which the peptide was derived (PROSPEC); UniProtKB-P06702 (protein, UniProt P06702 1-114, looked up)
Protein S100-A9: MTCKMSQLERNIETIINTFHQYSVKLGHPDTLNQGEFKELVRKDLQNFLKKENKNEKVIEHIMEDLDTNADKQLSFEEFIMLMARLTWASHEKMHEGDEGPGHHHKPGLGEGTP
structure of the tertiary dentin compared to the samples treated with the peptides (HE staining) [2]: sparse structure | number of samples with tertiary dentin formation that completely sealed the exposed pulp region [2]: 2 samples | closure of the surface of the exposed pulp (HE staining) [2]: completely closed by the formed tertiary dentin
